Laboratory results from patent publication US20260015420A1 (CENTESSA PHARMACEUTICALS UK, published 2026).
Residue numbers refer to the chain shown, from its start.

T1: cynomolgus monkey CD47-Fc (cynomolgus monkey, UniProt Q08722 19-139 (human entry), limits assumed)
T1 construct: also called cCD47; cyno CD47-Fc; not shown: Fc part
T1 chain: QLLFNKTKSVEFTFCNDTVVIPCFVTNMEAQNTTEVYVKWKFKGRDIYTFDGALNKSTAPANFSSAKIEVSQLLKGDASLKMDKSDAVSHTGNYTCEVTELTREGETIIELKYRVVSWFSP

B1: A-H3, human IgG1null (antibody, V domains shown)
VH: EVQLVQSGAEVKKPGESLKISCKGSGYSFTNYNIHWVRQMPGKGLEWMGTIYPGNSDTSYNPSFQGQVTISADKSISTAYLQWSSLKASDTAMYYCARGGVRAMDYWGQGTLVTVSS
VL: DIVMTQSPLSLPVTPGEPASISCRSSQSLLHSKGNTYLGWYLQKPGQSPQLLIYKGSNRFSGVPDRFSGSGSGTDFTLKISRVEAEDVGVYYCMQASQVPYTFGQGTKLEIK
notes: IgG1null; also called Clone A-H3
B2: C-D5, human IgG1null (antibody, V domains shown)
VH: B1 VH with N55D, S59R, S63K, V101I
VL: B1 VL with K33N, G34Y, M94F, A96G, V99T
notes: IgG1null; also called Clone C-D5
B3: B-D2, human IgG1null (antibody, V domains shown)
VH: B1 VH with S59R, V101E
VL: B1 VL with K33N, M94F
notes: IgG1null; also called Clone B-D2
B4: E-C5, human IgG1null (antibody, V domains shown)
VH: B1 VH with N55D, S63K, V101Y, M104Q
VL: B1 VL with K33N, Q98H
notes: IgG1null; also called Clone E-C5
B5: E-D6, human IgG1null (antibody, V domains shown)
VH: B1 VH with N55D, S63K, V101Y, M104E
VL: B1 VL with K33N, A96G, Q98H
notes: IgG1null; also called Clone E-D6
B6: F-G3, human IgG1null (antibody, V domains shown)
VH: B1 VH with P62H, S63K, V101N, M104E
VL: B1 VL with K33N
notes: IgG1null; also called clone F-G3
B7: D-C12, human IgG1null (antibody, V domains shown)
VH: B1 VH with S59R, S63K, V101F
VL: B1 VL with K33N, A96G, Q98H
notes: IgG1null; also called Clone D-C12
B8: B-A6, human IgG1null (antibody, V domains shown)
VH: B1 VH with N55D, S59R, P62Q, S63K, V101I
VL: B1 VL with K33N, M94F, A96G, Q98H, T102I
notes: IgG1null; also called Clone B-A6
B9: VH1.12/VL1.8, human IgG1null (antibody, V domains shown)
VH: QVQLVQSGAEVKKPGASVKVSCKASGYTFTNYAMHWVRQAPGQRLEWMGTIYPGNDNTKYNQKFQGRVTITADTSASTAYMELSSLRSEDTAVYYCARGGFRAMDYWGQGTLVTVSS
VL: B1 VL with K33N, G34A, N35Y, T36N, Q98H
notes: IgG1null; also called VH1.12/VL8
B10: VH1.7/VL1.5, human IgG1null (antibody, V domains shown)
VH: B9 VH with A33N, M34I, N57D, K59S, N61S
VL: B1 VL with K33N, G34A, N35Y, T36N, M94F, Q98H
notes: VH assembled as for m35; IgG1null; also called Clone VH1.7/VL1.5
B11: VH1.7/VL1.4, human IgG1null (antibody, V domains shown)
VH: B9 VH with A33N, M34I, N57D, K59S, N61S
VL: B1 VL with K33N, G34A, N35Y, T36N, M94F
notes: VH assembled as for m35; IgG1null
B12: VH1.7/VL1.6, human IgG1null (antibody, V domains shown)
VH: B9 VH with A33N, M34I, N57D, K59S, N61S
VL: B1 VL with K33N, G34A, M94F, Q98H
notes: VH assembled as for m35; IgG1null; also called Clone VH1.7/VL1.6
B13: VH1.9/VL1.6, human IgG1null (antibody, V domains shown)
VH: B9 VH with N57D, N61S, F101Y, M104E
VL: B1 VL with K33N, G34A, M94F, Q98H
notes: IgG1null
B14: VH1.6/VL1.6, human IgG1null (antibody, V domains shown)
VH: B9 VH with N57D, K59S, N61S, F101Y, M104E
VL: B1 VL with K33N, G34A, M94F, Q98H
notes: as for B11
B15: VH1.1/VL1.6, human IgG1null (antibody, V domains shown)
VH: B9 VH with N57D, F101Y, M104E
VL: B1 VL with K33N, G34A, M94F, Q98H
notes: cf. claim 50); IgG1null; also called Clone VH1.1/VL1.6

Target: T1, cynomolgus monkey CD47-Fc
Experiment: direct ELISA, coated cyno CD47-Fc, OD450
Description: To coat ELISA plates sold under the name Greiner Bio-One High Binding ELISA plates, target proteins were diluted to 1 μg/ml in carbonate buffer and added at 100 μl per well, at 4° C., o/n. Coated plates were washed 3× with PBS pH7.4, blocked with 1% BSA in PBS (380 μl/well) for 1 hr at RT, then washed 3× with PBS-non-ionic surfactant sold under the trademark Tween® 20 (PBST). CD47 antibodies (100 μl/well; diluted in PBST) were then added and then incubated 1 hr at RT. Plates were then washed 3× with PBST and goat anti-human kappa chain-HRP added (100 μl/well) at RT, for 1 hr. Plates were then washed 3× with PBST and twice with PBS before the addition of 100 μl TMB per well. Reactions were stopped by adding 100 μl 2M H₂SO₄/well and OD was read on a plate reader at 450 nm.

binding result | Binder
binds | B1
binds | B2
binds | B3
binds | B4
binds | B5
binds | B6
binds | B7
binds | B8

These binders were tested against T2, human CD47-Fc (human, UniProt Q08722 19-139) (assay: direct ELISA, coated human CD47-Fc, OD450).
T2 construct: also called hCD47; human CD47-Fc protein; not shown: Fc part

binding result | Binder
binds | B1
binds | B2
binds | B3
binds | B4
binds | B5
binds | B6
binds | B7
binds | B8

The binders below were run against T2, human CD47-Fc (assay: HTRF epitope competition; competitor Tb-labelled h5F9G4 IgG1 on biotinylated human CD47-Fc).
Target sequence in this assay (Q08722 19-139 limits assumed): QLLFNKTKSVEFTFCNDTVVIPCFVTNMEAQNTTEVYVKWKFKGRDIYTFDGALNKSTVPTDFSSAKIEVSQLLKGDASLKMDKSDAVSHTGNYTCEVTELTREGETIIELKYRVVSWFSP

IC50 [µg/mL] | Binder
16.3 | B9
9.53 | B10
22.6 | B11
4.64 | B12
11.1 | B13
14 | B14
6.96 | B15
